{"source": "IntAct's records for PubMed 16951355", "parents": {"B1": {"name": "ICOS ligand (Homo sapiens), O75144 (parent)", "chain": "MRLGSPGLLFLLFSSLRADTQEKEVRAMVGSDVELSCACPEGSRFDLNDVYVYWQTSESKTVVTYHIPQNSSLENVDSRYRNRALMSPAGMLRGDFSLRLFNVTPQDEQKFHCLVLSQSLGFQEVLSVEVTLHVAANFSVPVVSAPHSPSQDELTFTCTSINGYPRPNVYWINKTDNSLLDQALQNDTVFLNMRGLYDVVSVLRIARTPSVNIGCCIENVLLQQNLTVGSQTGNDIGERDKITENPVSTGEKNAATWSILAVLCLLVVVAVAIGWVCRDRCLQHSYAGAWAVSPETELTGHV"}}}
{"variants_of": "B1", "conditions": "with icos_human ICOS"}
{"variant": "G121A", "effect of a mutation on the interaction": "with no effect"}
{"variant": "G195A", "effect of a mutation on the interaction": "with no effect"}
{"variant": "P141A", "effect of a mutation on the interaction": "with no effect"}
{"variant": "F122A", "effect of a mutation on the interaction": "disrupting interaction strength"}
{"variant": "N102Q", "effect of a mutation on the interaction": "decreasing interaction strength"}
{"variant": "Q123A", "effect of a mutation on the interaction": "with no effect"}
{"variant": "N137Q", "effect of a mutation on the interaction": "with no effect"}
{"variant": "N225Q", "effect of a mutation on the interaction": "with no effect"}
{"variant": "F138A", "effect of a mutation on the interaction": "with no effect"}
{"variant": "V143A", "effect of a mutation on the interaction": "with no effect"}
{"variant": "N186Q", "effect of a mutation on the interaction": "with no effect"}
{"variant": "E124A", "effect of a mutation on the interaction": "decreasing interaction strength"}
{"variant": "L120A", "effect of a mutation on the interaction": "decreasing interaction strength"}
{"variant": "L114A", "effect of a mutation on the interaction": "decreasing interaction strength"}
{"variant": "L196A", "effect of a mutation on the interaction": "with no effect"}
